No end group written: not given here.
B1: MC40 targeting peptide ASVHFPP (SEQ ID NO: 1) (peptide)
peptide: ASVHFPP
notes: 7-mer selected from the Ph.D.-7 phage display library; also called MC40 clone
B2: MET binding peptide TSPVALL (SEQ ID NO: 3) (peptide)
peptide: TSPVALL
notes: 7-mer from Ph.D.-7 phage display, tested as a phage clone
B3: TGAILHP-targeted MSN-SLBs, low peptide valency (0.015 wt % or ~5 peptides/particle) (other)
peptide: TGAILHP
modifications: not fully specified
notes: Multivalent display on mesoporous silica nanoparticle-supported lipid bilayers; also called MSN-SLBs modified with 0.015 wt % of TGAILHP and 10 wt % PEG-2000
B4: MET binding peptide WPRLTNM (SEQ ID NO: 5) (peptide)
peptide: WPRLTNM
notes: as for B2
B5: TGAILHP peptide (SEQ ID NO: 18) (peptide)
peptide: TGAILHP
notes: 7-mer from phage display; It was selected on CHO-K1 cells expressing human ephrin B2, with counter-selection on parental CHO-K1 and on CHO-K1 expressing human ephrin B1; also called ephrin B2 targeting peptide
B6: MET binding peptide IPLKVHP (SEQ ID NO: 4) (peptide)
peptide: IPLKVHP
notes: as for B2
B7: MC40-targeted protocells (mesoporous silica nanoparticle-supported lipid bilayer modified with 0.015 wt %, ~6 peptides/particle, of the MC40 targeting peptide) (peptide, not shown: small tags and cut ends)
peptide: ASVHFPPC
modifications: also: C-terminal Cys conjugated via sulfhydryl-to-amine crosslinker to DOPE in the protocell lipid bilayer
B8: MET binding peptide TATFWFQ (SEQ ID NO: 2) (peptide)
peptide: TATFWFQ
notes: as for B2

Legend:
[1] = target: T1, recombinant human Met (rhMet), fused to the Fc domain of human IgG (human, UniProt P08581 25-932); assay: phage display selection on rhMet-Fc, five rounds; phage ELISA on rhMet
T1 construct: also called MET receptor; hepatocyte growth factor receptor; not shown: Fc domain of human IgG
T1 sequence (P08581 25-932 limits assumed): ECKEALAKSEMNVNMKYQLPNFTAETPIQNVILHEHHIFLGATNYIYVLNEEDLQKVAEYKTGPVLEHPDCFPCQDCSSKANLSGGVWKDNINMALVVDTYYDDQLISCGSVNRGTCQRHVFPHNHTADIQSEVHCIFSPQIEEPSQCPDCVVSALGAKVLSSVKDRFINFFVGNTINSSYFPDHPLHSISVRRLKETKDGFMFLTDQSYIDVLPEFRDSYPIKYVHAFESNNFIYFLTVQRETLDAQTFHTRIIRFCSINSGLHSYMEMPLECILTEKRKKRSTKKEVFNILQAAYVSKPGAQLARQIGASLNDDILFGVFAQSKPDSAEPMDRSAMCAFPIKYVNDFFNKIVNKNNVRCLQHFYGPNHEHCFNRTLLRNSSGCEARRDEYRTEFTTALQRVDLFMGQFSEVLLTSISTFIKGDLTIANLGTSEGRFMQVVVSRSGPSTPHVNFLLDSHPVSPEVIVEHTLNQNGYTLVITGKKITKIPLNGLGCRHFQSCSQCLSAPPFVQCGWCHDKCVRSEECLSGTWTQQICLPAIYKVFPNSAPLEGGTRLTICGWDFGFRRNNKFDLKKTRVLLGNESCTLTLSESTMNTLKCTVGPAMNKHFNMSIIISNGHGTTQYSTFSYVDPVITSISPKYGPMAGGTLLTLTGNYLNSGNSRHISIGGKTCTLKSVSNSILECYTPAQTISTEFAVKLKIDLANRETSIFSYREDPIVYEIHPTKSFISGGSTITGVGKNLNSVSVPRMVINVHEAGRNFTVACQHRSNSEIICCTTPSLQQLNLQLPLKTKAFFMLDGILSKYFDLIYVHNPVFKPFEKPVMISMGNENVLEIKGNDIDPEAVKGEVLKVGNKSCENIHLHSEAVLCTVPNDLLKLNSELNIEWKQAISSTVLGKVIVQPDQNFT
Method: Peptides at 1×10¹¹ pfu/mL were incubated with 100 nM of recombinant human Met (rhMet), fused to the Fc domain of human IgG, for 1 hour at room temperature. […] Bound phage clones were eluted with a low-pH buffer (0.2 M glycine with 1 mg/mL BSA, pH 2.2), and elutants were amplified via infection of the host bacterium (E. coli ER2738).
1×10¹¹ pfu/mL were incubated with 100 nM of recombinant human Met (rhMet), fused to the Fc domain of human IgG, for 1 hour at room temperature. […] Bound phage clones were eluted with a low-pH buffer (0.2 M glycine with 1 mg/mL BSA, pH 2.2), and elutants were amplified via infection of the host bacterium (E. coli ER2738). […] Peptides specific for protein A and protein G were avoided by alternating rounds of selection between protein A-coated magnetic particles and protein G-coated magnetic particles. After five rounds of selection, DNA was recovered from 40 individual clones and sequenced using the −96 gIII primer provided with the Ph.D.™-7 kit.

ephrin B2 (EB2) on cells [2] = target: T2, ephrin B2 (EB2) on cells (human, UniProt P52799 28-333); assay: flow cytometry, EB2-positive HEK 293 against EB2-negative parental CHO-K1
T2 construct: whole, on cells; The species is stated as human for the CHO-K1 transfectants; also called human ephrin B2
T2 sequence (P52799 28-333): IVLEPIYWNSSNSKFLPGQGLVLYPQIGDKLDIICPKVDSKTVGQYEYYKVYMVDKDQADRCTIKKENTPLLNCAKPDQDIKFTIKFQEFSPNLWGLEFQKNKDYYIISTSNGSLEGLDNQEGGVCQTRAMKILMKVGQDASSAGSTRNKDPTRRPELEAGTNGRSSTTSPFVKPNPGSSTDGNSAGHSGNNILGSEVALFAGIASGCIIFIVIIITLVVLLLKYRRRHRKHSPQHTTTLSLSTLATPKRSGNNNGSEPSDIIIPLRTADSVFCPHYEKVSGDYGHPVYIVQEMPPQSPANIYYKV

ephrin B2 (EB2) on cells [3] = target: T2, ephrin B2 (EB2) on cells; assay: phage display selection on CHO-K1 cells expressing human EB2, with counter-selection on parental CHO-K1 and on CHO-K1 expressing ephrin B1
[4] = target: Met (hepatocyte growth factor receptor) on Hep3B cells (human) (UniProt P08581); assay: flow cytometry saturation binding on cytochalasin D-treated Hep3B cells, 1 hour at 37 C; specific binding = total minus binding with saturating unlabeled HGF; apparent Kd of the multivalent particle
Chain of Met (hepatocyte growth factor receptor) on Hep3B cells (human) (P08581 25-1390): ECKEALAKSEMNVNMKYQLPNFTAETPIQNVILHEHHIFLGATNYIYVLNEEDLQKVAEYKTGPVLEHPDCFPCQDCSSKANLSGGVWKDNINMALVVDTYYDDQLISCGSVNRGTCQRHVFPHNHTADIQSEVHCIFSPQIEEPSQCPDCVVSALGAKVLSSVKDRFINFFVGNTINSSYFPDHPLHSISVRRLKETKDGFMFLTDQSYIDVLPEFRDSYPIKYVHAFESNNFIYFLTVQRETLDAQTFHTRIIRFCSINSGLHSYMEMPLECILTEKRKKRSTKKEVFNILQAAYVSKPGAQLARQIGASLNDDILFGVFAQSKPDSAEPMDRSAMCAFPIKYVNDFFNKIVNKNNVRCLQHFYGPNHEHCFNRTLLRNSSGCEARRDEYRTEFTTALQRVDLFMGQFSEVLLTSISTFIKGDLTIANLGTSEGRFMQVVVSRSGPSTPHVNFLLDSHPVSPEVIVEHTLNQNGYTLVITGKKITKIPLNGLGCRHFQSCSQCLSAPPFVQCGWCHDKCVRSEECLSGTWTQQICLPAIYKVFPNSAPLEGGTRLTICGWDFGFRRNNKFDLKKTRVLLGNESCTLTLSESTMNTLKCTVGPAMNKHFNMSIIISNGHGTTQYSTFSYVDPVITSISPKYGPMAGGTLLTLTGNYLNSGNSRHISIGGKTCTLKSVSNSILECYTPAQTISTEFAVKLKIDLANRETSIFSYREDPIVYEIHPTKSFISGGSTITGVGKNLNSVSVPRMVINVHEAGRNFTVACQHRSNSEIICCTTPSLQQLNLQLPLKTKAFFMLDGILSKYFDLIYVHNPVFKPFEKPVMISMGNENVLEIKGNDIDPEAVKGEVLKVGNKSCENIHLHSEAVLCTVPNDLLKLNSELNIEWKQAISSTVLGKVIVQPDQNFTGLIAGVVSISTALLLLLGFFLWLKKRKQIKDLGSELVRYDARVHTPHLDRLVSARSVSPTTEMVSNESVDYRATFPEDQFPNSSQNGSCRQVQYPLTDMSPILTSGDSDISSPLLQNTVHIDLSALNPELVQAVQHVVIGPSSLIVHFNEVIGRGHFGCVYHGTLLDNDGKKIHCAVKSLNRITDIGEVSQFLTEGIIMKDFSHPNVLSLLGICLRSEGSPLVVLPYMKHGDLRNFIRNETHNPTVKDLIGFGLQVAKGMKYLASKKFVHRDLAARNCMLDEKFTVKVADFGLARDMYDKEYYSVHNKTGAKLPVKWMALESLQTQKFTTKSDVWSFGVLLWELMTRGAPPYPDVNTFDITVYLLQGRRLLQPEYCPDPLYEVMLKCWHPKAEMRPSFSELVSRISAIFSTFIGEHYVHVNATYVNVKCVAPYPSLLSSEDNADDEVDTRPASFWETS

Row | Binder | binding result [1] | further results
1 | B1 | binds | –
2 | B2 | binds | –
3 | B3 | – | fold higher affinity for HEK 293 cells than for EB2-negative cells (parental CHO-K1) (ephrin B2 (EB2) on cells [2]): 1000 fold
4 | B4 | binds | –
5 | B5 | – | binding result (ephrin B2 (EB2) on cells [3]): binds
6 | B6 | binds | –
7 | B7 | – | Kd [4]: 1.05 nM
8 | B8 | binds | –
